Key:
[1] = target: T1, RsAgo WT (Rhodobacter sphaeroides (ATCC 17025D-5), UniProt A4WYU7 1-777); assay: fluorescence polarization; 5 mM Mg2+; FP: 20 mM HEPES-KOH pH 7.5, 200 mM NaCl, 5 mM MgCl2, 0.01 mg/ml E. coli total tRNA, 0.01% NP-40, 10 pM probe, 25 C; EMSA: 20 mM HEPES-KOH pH 7.5, 200 mM NaCl, 5
T1 sequence: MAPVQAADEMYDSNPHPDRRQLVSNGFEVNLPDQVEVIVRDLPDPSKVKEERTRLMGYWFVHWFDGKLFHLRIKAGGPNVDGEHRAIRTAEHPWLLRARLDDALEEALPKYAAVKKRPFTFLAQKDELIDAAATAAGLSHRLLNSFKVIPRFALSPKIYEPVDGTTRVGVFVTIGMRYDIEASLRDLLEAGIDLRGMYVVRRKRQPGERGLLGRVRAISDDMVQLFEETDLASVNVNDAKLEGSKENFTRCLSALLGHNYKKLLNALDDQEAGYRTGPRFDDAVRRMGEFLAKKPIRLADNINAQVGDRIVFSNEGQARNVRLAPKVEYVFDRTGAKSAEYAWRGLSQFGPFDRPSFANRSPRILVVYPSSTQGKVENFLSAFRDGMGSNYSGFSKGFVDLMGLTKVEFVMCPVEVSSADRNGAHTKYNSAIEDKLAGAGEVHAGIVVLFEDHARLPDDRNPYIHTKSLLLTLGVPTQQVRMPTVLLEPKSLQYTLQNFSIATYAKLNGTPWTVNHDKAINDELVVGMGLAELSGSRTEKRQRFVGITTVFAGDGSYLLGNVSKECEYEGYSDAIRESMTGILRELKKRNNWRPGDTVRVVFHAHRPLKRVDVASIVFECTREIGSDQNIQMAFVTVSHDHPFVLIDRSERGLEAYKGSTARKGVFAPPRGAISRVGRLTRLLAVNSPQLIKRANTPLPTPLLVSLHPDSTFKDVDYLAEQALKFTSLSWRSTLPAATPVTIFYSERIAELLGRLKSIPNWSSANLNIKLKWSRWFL

[2] = target: T2, RsAgo delP45-W63 (Rhodobacter sphaeroides (ATCC 17025D-5), UniProt A4WYU7 1-777, del45-63); assay: EMSA; RsAgo-guide RNA complex titrated on target DNA; FP: 20 mM HEPES-KOH pH 7.5, 200 mM NaCl, 5 mM MgCl2, 0.01 mg/ml E. coli total tRNA, 0.01% NP-40, 10 pM probe, 25 C; EMSA: 20 mM HEPES-KOH pH 7.5, 200 mM NaCl, 5
T2 sequence: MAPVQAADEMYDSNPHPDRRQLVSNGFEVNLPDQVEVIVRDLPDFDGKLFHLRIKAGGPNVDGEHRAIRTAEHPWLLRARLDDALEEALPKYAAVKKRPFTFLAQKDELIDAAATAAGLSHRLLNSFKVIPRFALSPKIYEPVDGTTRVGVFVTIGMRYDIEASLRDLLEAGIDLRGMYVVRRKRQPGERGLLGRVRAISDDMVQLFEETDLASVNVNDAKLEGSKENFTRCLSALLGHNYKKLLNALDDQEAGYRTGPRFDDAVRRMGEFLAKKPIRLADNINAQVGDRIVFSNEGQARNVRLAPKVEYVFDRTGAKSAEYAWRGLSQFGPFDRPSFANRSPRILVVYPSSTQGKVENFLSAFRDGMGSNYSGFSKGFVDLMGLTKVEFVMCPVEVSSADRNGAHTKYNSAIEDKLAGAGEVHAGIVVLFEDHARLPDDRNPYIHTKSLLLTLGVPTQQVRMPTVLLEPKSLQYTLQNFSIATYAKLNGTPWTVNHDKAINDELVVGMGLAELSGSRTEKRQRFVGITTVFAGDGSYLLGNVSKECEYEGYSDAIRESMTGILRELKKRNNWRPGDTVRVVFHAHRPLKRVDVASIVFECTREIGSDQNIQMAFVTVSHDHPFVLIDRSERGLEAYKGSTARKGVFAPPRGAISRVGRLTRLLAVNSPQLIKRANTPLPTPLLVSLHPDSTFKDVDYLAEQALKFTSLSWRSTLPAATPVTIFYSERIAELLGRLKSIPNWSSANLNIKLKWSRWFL

[3] = target: T3, RsAgo delN20 (Rhodobacter sphaeroides (ATCC 17025D-5), UniProt A4WYU7 21-777, del1-20); assay: X-ray crystal structure (2 A); Mg2+ at guide phosphates 1 and 3 and L777 carboxylate; FP: 20 mM HEPES-KOH pH 7.5, 200 mM NaCl, 5 mM MgCl2, 0.01 mg/ml E. coli total tRNA, 0.01% NP-40, 10 pM probe, 25 C; EMSA: 20 mM HEPES-KOH pH 7.5, 200 mM NaCl, 5
T3 sequence: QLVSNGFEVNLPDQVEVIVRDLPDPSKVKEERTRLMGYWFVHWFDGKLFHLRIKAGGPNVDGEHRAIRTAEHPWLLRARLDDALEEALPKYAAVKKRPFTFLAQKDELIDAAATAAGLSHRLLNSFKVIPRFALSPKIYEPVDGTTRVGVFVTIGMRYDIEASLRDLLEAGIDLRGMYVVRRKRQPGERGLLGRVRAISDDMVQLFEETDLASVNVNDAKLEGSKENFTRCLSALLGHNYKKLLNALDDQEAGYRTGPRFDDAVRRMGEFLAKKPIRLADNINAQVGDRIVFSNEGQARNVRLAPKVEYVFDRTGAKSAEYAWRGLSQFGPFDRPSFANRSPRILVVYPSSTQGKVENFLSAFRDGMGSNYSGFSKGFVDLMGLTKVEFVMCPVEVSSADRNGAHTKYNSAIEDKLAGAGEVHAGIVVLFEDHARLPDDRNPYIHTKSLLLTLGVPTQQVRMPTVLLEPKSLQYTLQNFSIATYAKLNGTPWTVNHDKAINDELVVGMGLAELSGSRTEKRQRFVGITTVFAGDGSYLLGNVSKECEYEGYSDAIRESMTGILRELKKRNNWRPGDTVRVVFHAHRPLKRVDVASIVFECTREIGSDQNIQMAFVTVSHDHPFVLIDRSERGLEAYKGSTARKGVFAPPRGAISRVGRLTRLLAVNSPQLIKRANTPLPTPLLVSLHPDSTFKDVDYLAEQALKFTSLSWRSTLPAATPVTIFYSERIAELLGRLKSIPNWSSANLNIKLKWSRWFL

[4] = target: T1, RsAgo WT; assay: EMSA; 5 mM Mg2+; FP: 20 mM HEPES-KOH pH 7.5, 200 mM NaCl, 5 mM MgCl2, 0.01 mg/ml E. coli total tRNA, 0.01% NP-40, 10 pM probe, 25 C; EMSA: 20 mM HEPES-KOH pH 7.5, 200 mM NaCl, 5

Binder: TTACAACCTACTACCTCG (ssDNA, 5'-phosphate) [5'P-DNA, FAM]
- Kd [1]: 42.6 ± 3.4 nM

Binder: CUACAACCUACUACCUCG (ssRNA, 5'-phosphate) [5'C-RNA, FAM]
- Kd [1]: 67 ± 3.5 nM

Binder: UUACAACCUACUACCUCG (ssRNA, 5'-OH) [5'OH-RNA, FAM]
- Kd [1]: 1140 ± 54 nM

Binder: GUACAACCUACUACCUCG (ssRNA, 5'-phosphate) [5'G-RNA, FAM]
- Kd [1]: 181 ± 13.3 nM

Binder: AUACAACCUACUACCUCG (ssRNA, 5'-phosphate) [5'A-RNA, FAM]
- Kd [1]: 24.8 ± 1.7 nM

B1: guide 5'P-RNA + 70-base target DNA (DNA:RNA)
RNA: UUACAACCUACUACCUCG
DNA: TAAAATCTTAAAGTTATTATTTCTATACGAGGTAGTAGGTTGTAATTATCACAATTTATAGTAGTATTAA
modifications: 5'-phosphate on guide
- binding result [2]: no binding

B2: 18-nt guide RNA/18-nt target DNA (crystal) (DNA:RNA)
RNA: UUACAACCUACUACCUCG
DNA: CGAGGTAGTAGGTTGTAA
modifications: 5'-phosphate on guide
- binding result [3]: binds

B3: 5'P-RNA/DNA (RR/DD) (DNA:RNA)
RNA: UUACAACCUACUACCUCG
DNA: CGAGGTAGTAGGTTGTAA
modifications: 5'-phosphate on guide
- binding result [4]: binds

— paper PMC4919518
